Consider one substance from paper PMC8207647.

Assay in all cases: purified protein
What all share (conditions): O2 co-substrate, pH 7.5 sodium phosphate 50 mM, 35 °C

In series [1] the test system is O=Cc1ccc(C=O)o1.
For series [2], the system named is O=Cc1ccc(CO)o1.
In series [3] the test system is O=C(O)c1ccc(CO)o1.
Series [4] deals with COc1ccc(CO)cc1OC.

Take “FoxAAO (Fusarium oxysporum f. sp. lycopersici 4287)”: the Km turned out to be 3.7 ± 1.0 mM in series [1], 17 ± 4.9 mM in series [2], 3.1 ± 0.31 mM in series [3] and 3.0 ± 0.24 mM in series [4]. Moreover, the kcat in series [1] came out at 1.4 ± 0.13 s⁻¹; in series [3], 5.2 ± 0.14 s⁻¹; in series [4], 25 ± 1.2 s⁻¹. Moreover, the values for the specificity constant (kcat/Km) in series [1], in series [3] and in series [4] were 380 M⁻¹ s⁻¹, 1700 M⁻¹ s⁻¹ and 8300 M⁻¹ s⁻¹, respectively.
